The values that follow come from publication PMC8038949, “Structural basis for the DNA-binding activity of human ARID4B Tudor domain”.

For this series, the target named is T1, ARID4B TD121 E50L (Homo sapiens, UniProt Q4LE39 1-121, E50L).
T1 sequence: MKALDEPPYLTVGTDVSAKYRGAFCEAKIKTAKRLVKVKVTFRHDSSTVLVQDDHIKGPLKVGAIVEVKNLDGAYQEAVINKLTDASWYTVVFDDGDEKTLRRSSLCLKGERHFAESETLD
As to the kind of experiment: EMSA; stronger than wild-type ARID4B TD121; 50 mM Tris-HCl pH 7.6, 50 mM NaCl (buffer A); ITC 25 C; EMSA 4 C, 12 uM DNA, 8% native gel in TBE; NMR titration by 1H-15N HSQC (temperature not stated for titration; buffer A also defined elsewhere as 20 mM phosphate, 100 mM NaCl, pH 7.0). Conditions: protein: recombinant; 5' overhang 1 nt on each strand (17 bp paired).

B1: dsDNA1 (dsDNA)
DNA 1: CTCAGGTCAAAGGTCACG
DNA 2: TCGTGACCTTTGACCTGA
B1: the binding result was “binds”.
